Results reported in patent publication KR20110049766A (dated 2011).

Legend:
[1] = biological target: T1, MBP-IL-15 fusion protein (recombinant human IL-15 fused to maltose-binding protein) (human, UniProt P40933 49-162); experiment: competitive inhibition ELISA; Fab-pIII supernatant pre-incubated with soluble antigen, then on coated antigen; Kd from IC50 (Klotz plot)
T1 construct: Expressed in E. coli TG1 and purified on amylose resin; also called recombinant human IL-15 antigen

[2] = biological target: T2, recombinant human TNF-alpha (human, UniProt P01375 77-233); experiment: as above
T2 construct: Bought protein; also called TNF-α; tumor necrosis factor-alpha

[3] = biological target: T1, MBP-IL-15 fusion protein (recombinant …); experiment: ELISA (Fig. 3a), Fab-pIII supernatant on coated antigen

T1 sequence (P40933 49-162 limits assumed): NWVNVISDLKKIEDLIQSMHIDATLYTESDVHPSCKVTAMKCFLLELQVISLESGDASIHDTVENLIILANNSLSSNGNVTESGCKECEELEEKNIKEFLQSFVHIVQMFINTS
T2 sequence (P01375 77-233 limits assumed): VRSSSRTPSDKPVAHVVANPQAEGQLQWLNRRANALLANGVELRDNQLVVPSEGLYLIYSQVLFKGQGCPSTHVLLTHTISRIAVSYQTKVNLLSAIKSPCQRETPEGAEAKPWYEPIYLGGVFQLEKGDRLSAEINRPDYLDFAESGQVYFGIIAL

Binder | Kd [1] [nM] | Kd [2] [nM] | binding result [3]
anti-IL-15 Fab clone 4H10 (Fab, V domains shown, Tested as a soluble Fab-pIII fusion molecule in E. coli culture supernatant (human Fd = VH+CH1 fused to phage pIII, human kappa light chain); Only the variable domains are tied to the clone; also called 3E3; 4H10 (3E3)) VH: EVQLVQSGGGLVEPGGSLRLSCAASGLSISDAWMHWVRQVPGKGLEWVGLITNKTGGGTIIYAAPVKGRFTISRDDSKNTLYLQMNSLKTEDTAMYYCVTTYDQGYWGQGTMVTVSS VL: ELVLTQSPSSLSASVGDRVTITCRASQSISRYLNWYQQKPGKAPKLLIYGASRLESGVPSRFSGSGSGTDFTLTISSLQPEDFATYYCQQSDSVPVTFGQGTRLEIKR | 100 |  | 
anti-IL-15 Fab clone 1H3 (Fab, V domains shown, Tested as a soluble Fab-pIII fusion molecule in E. coli culture supernatant; only the variable domains are tied to the clone) VH: EVQLVQSGGGLVEPGGSLRLSCAASGLSISDAWMHWVRQVPGKGLEWVGLITNKTGGGTIIYAAPVKGRFTISRDDSKNTLYLQMNSLKTEDTAMYYCVTTYDQGYWGQGTMVTVSS VL: ELVLTQSPGTLSLSPGERATLSCRASQSIFNYVAWYQQKPGQAPRLLIYDASNRATGIPARFSGSGSGTDFTLTISSLEPEDFAVYYCQQRSKWPPTWTFGQGTRVDIKR | 700 |  | 
anti-TNF-α Fab clone TNFa#1 (Fab, V domains shown, Tested as a soluble Fab-pIII fusion molecule in E. coli culture supernatant; only the variable domains are tied to the clone; also called TNFα#1; #4) VH: QVQLLQSGGGLVKPGGSLRLSCVASGFTFSSYWMSWVRQAPGKGLEWIGEINHSGSTSYNPSLKSRVTISIDTSKNQFSLKLNSVATADTAVYYCARLGWTMVRGVKYYYGMDVWGQGTMVTVSS VL: ELVLTQSPSSLSASVGDRVTITCRASQSISRYLNWYQQKPGKAPKLLIYGASRLESGVPSRFSGSGSGTDFTLTISSLQPEDFATYYCQQSDSVPVTFGQGTRLEIKR |  | 1000 | 
anti-IL-15 Fab clone 8C5 (Fab, V domains shown, Tested as a soluble Fab-pIII fusion molecule in E. coli culture supernatant; only the variable domains are tied to the clone) VH: QVQLLQSGPGLVKPSQTLSLTCAISGDSVSSNSAAWNWIRQSPSRGLEWLGRTYYRSKWYNDYAVSVKSRITINPDTSKNQFSLQLNSVTPEDTAVYYCASHKDPGSSWYRQPFDYWGQGTMVTVS VL: ELVLTQSPSSLSASVGDRVTITCRASQSISRYLNWYQQKPGKAPKLLIYGASRLESGVPSRFSGSGSGTDFTLTISSLQPEDFATYYCQQSDSVPVTFGQGTRLEIKR |  |  | binds
anti-TNF-α Fab clone TNFa#2 (Fab, V domains shown, Tested as a soluble Fab-pIII fusion molecule in E. coli culture supernatant; only the variable domains are tied to the clone; also called TNFα#2; #5) VH: EVQLVQSGGGVVQPGRSLRLSCAASGFSFGDYAMHWVRQAPGKGLEWVSGISWNSRIIGYADSVKGRFTISRDKAKNSLYLQMSSLRTEDTAVYYCARMGGDSSGYYSEPYYYFDYWGQGTLVTVSS VL: ELVLTQSPSSLSASVGDRVTITCRASQSISRYLNWYQQKPGKAPKLLIYGASRLESGVPSRFSGSGSGTDFTLTISSLQPEDFATYYCQQSDSVPVTFGQGTRLEIKR |  | 200 | 
anti-IL-15 Fab clone 3C1 (Fab, V domains shown, Tested as a soluble Fab-pIII fusion molecule in E. coli culture supernatant; only the variable domains are tied to the clone; also called 4H7; 3C1 (4H7)) VH: EVQLVQSGGGLVEPGGSLRLSCAASGLSISDAWMHWVRQVPGKGLEWVGLITNKTGGGTIIYAAPVKGRFTISRDDSKNTLYLQMNSLKTEDTAMYYCVTTYDQGYWGQGTMVTVSS VL: DIVMTQSPSSLSASVGDRVPITCRASQGIRNDLGWYQQKPGKAPKLLIYAASSLQSGVPSRFSGSGSGTDFTLTISSLQPEDFATYYCLQDYNYPWTFGQGTQVEIKR |  |  | binds
